Test results published in patent US9938510B2, “Photobacterium sp. alpha-2-6-sialyltransferase variants” (The Regents of the University of California, priority 2014, dated 2018).
Positions count from the first letter of the chain named. Numbers in names are those of the source.

B1: Psp26ST(15-501)-His6: recombinant Photobacterium sp. JH-ISH-224 α2-6-sialyltransferase, residues 15-501, C-terminal His6, wild-type; SEQ ID NO: 23 (protein)
chain: CNNSEENTQSIIKNDINKTIIDEEYVNLEPINQSNISFTKHSWVQTCGTQQLLTEQNKESISLSVVAPRLDDDEKYCFDFNGVSNKGEKYITKVTLNVVAPSLEVYVDHASLPTLQQLMDIIKSEEENPTAQRYIAWGRIVPTDEQMKELNITSFALINNHTPADLVQEIVKQAQTKHRLNVKLSSNTAHSFDNLVPILKELNSFNNVTVTNIDLYDDGSAEYVNLYNWRDTLNKTDNLKIGKDYLEDVINGINEDTSNTGTSSVYNWQKLYPANYHFLRKDYLTLEPSLHELRDYIGDSLKQMQWDGFKKFNSKQQELFLSIVNFDKQKLQNEYNSSNLPNFVFTGTTVWAGNHEREYYAKQQINVINNAINESSPHYLGNSYDLFFKGHPGGGIINTLIMQNYPSMVDIPSKISFEVLMMTDMLPDAVAGIASSLYFTIPAEKIKFIVFTSTETITDRETALRSPLVQVMIKLGIVKEENVLFWA
modifications: C-terminal His6; Synthetic Psp26ST(15-501) WILD TYPE
B2: A366G: Photobacterium sp. JH-ISH-224 α2-6-sialyltransferase residues 15-501, A366G point mutation, C-terminal His6; SEQ ID NO: 2 (protein)
chain: B1 chain with A352G
modifications: C-terminal His6; Synthetic Psp26ST(15-501) A366G

What was measured:
[1] = Kinetics of CMP-Neu5Ac donor hydrolysis activity (capillary electrophoresis); type: biochemical
Procedure: Procedure for Kinetic Analysis of Donor Hydrolysis by His6-Pd2,6ST(16-497), Psp26ST(15-501)-His6 and its A235D and A366G Mutants
The kinetics study for the donor hydrolysis activity of His6-Pd2,6ST(16-497) was carried out at 37° C. for 20 min in Tris-HCl buffer (200 mM, pH 8.0). The kinetics study for the donor hydrolysis activities of Psp26ST(15-501)-His6 and its A235D mutant was carried out at 20° C. for 10 min in Tris-HCl buffer (200 mM, pH 8.0). All reactions were performed in duplicate in a total volume of 10 μL containing varied concentrations of CMP-Neu5Ac (10, 20, 40, 60, 80 and 100 mM) and the enzyme (6 μM). Reactions were stopped by adding 10 μL of ethanol and then centrifuged. The supernatants were analyzed by a P/ACETM capillary electrophoresis (CE) system equipped with a photodiode array (PDA) detector (Beckman Coulter, Inc., Fullerton, Calif.). CE conditions were as follows: 75 μm i.d. capillary, 25 KV/80μÅ, 5 s vacuum injections, monitored at 200 nm and 254 nm, the running buffer used was sodium tetraborate (25 mM, pH 9.4). Apparent kinetic parameters were obtained by fitting the experimental data (the average values of duplicate assay results) into the Michaelis-Menten equation using Grafit 5.0.

[2] = Sialylation assay with periodic addition of CMP-Neu5Ac; type: biochemical
Procedure: Two reactions were set up at 20° C. in MES buffer (200 mM, pH 5.0) containing Psp2,6ST(15-501)-His6 (6.0 μM), CMP-Neu5Ac (1 mM), and GalNAcα2AA (1 mM) in a total volume of 50 μL. One of the reactions was used as a control and was incubated for 4 h. The other was incubated for 1 h, 2 equivalents of CMP-Neu5Ac was then added. The same dose was added every hour for up to 4 h reaction duration. Aliquots (2 μL each) were withdrawn and the reactions were stopped by adding 10 μL of cold ethanol followed by centrifugation. The samples were diluted and kept on ice until aliquots of 8 μL were injected and analyzed by a Shimadzu LC-6AD system equipped with a membrane on-line degasser, a temperature control unit, and a fluorescence detector (Shimadzu RF-10AXL). A reverse-phase Premier C18 column (250×4.6 mm i.e., 5 μm particle size, Shimadzu) protected with a C18 guard column cartridge was used. The mobile phase was 25% acetonitrile in water. The 2-aminobenzoic acid (2AA)-labeled fluorescent acceptor and the product formed were detected with excitation at 315 nm and emission at 400 nm.

[3] = earlier reports (Ding 2011; Sun 2008); cited from earlier work
[4] = Apparent sialyltransferase kinetics, GalNAcαSer as acceptor; type: biochemical
Procedure: (§1) Reactions were carried out in duplicate at 20° C. for 20 minutes in a total volume of 10 μL in a proper buffer at the optimal pH according to the pH profile of the wild-type enzyme (see, Ding, 2011, supra). When LacβMU was used as an acceptor, the conditions were: Tris-HCl buffer (200 mM, pH 8.0), enzyme (0.3 μM), varied concentrations of LacβMU (0.1, 0.25, 0.4, 1.0, 2.0, 4.0, and 6.0 mM) with a fixed concentration of CMP-Neu5Ac (1.0 mM) or varied concentrations of CMP-Neu5Ac (0.1, 0.25, 0.4, 1.0, 2.0, 4.0, and 6.0 mM) with a fixed concentration of LacβMU (1.0 mM). When GalNAcα2AA was used as an acceptor, the conditions were: NaOAc-HOAc buffer (200 mM, pH 5.0), enzyme (6 μM), varied concentrations of GalNAcα2AA (0.5, 0.8, 1.0, 2.0, 4.0, 8.0, and 10.0 mM) and a fixed concentration of CMP-Neu5Ac (4.0 mM) or varied concentrations of CMP-Neu5Ac (0.5, 1.0, 2.0, 4.0, 5.0, 8.0, and 10.0 mM) with a fixed concentration of GalNAcα2AA (1.0 mM). When GalNAcαSer was used as an acceptor, the conditions were: Tris-HCl buffer (200 mM, pH 8.0), enzyme (0.6 μM), varied concentrations of GalNAcαSer (0.1, 0.25, 0.5, 1.0, 2.0, 4.0, 8.0, and 10.0 mM) and a fixed concentration of CMP-Neu5Ac (2.0 mM). […]

[5] = Apparent sialyltransferase kinetics, GalNAcαThr as acceptor; type: biochemical
Procedure: as §1

[6] = Sialyltransferase activity assays, statements not tied to one acceptor (LacβMU, GalNAcα2AA, GalNAcαSer, GalNAcαThr); type: biochemical; settings: α-linked N-acetyl galactosaminides, especially GalNAcα2AA or GalNAcαThr, as acceptor
Procedure: When LacβMU was used as an acceptor, the assay was performed in duplicate in 10 μL of Tris-HCl buffer (100 mM, pH 8.0) containing CMP-Neu5Ac (1 mM), LacβMU (1 mM), MgCl2 (20 mM), wild-type Psp2,6ST(15-501)-His6 or its mutant (0.3 μM). When an α-GalNAc-terminated acceptor was used, the assay was performed in duplicate in 10 μL of Tris-HCl buffer (100 mM, pH 8.0 for GalNAcαSer/Thr) or NaOAc-HOAc (100 mM, pH 5.0 for GalNAcα2AA) containing CMP-Neu5Ac (1.5 mM), the acceptor (1 mM), MgCl2 (20 mM), wild-type Psp2,6ST(15-501)-His6 or its mutant (3.0 μM). Reactions were allowed to proceed at 20° C. for 20 min and stopped by adding 10 μL of cold ethanol. The analysis of sialylated product conversion was performed using the HPLC system as described above for sialyltransferase activity assay. The 4-methylumbelliferone (MU)-labeled fluorescent acceptor and the product formed were detected with excitation at 325 nm and emission at 372 nm. The 2-aminobenzoic acid (2AA)-labeled fluorescent acceptors and the products formed were detected with excitation at 315 nm and emission at 400 nm. The 9-fluorenylmethylcarbamate (Fmoc)-labeled fluorescent acceptors and the products formed were detected with excitation at 262 nm and emission at 313 nm.

| Molecule | CMP-Neu5Ac hydrolysis efficiency relative to sialyltransferase activity (more efficient) ([1]; versus kcat/Km with GalNAcα2AA as acceptor) | CMP-Neu5Ac hydrolysis efficiency relative to sialyltransferase activity (lower) ([1]; versus kcat/Km with LacβMU as acceptor) | sialylation yield ([2]; after an additional two equivalents of CMP-Neu5Ac, in 15 min) | sialylation yield ([2]; after the fourth dose (2 equivalents) of CMP-Neu5Ac) | sialylation yield ([2]; after the third dose (2 equivalents) of CMP-Neu5Ac) | sialylated product Neu5Acα2-6GalNAcα2AA formed ([2]; one equivalent of CMP-Neu5Ac, MES pH 5.0, 20° C., enzyme 6.0 μM, GalNAcα2AA 1 mM) | expression level of soluble protein [3] | catalytic efficiency (kcat/Km) higher than the wild-type enzyme [4] | catalytic efficiency (kcat/Km) higher than the wild-type enzyme [5] | sialyltransferase activity compared to wild-type [6] |
| --- | --- | --- | --- | --- | --- | --- | --- | --- | --- | --- |
| B1 | about 14 fold | 13 fold | 17% | 33% | 25% | 7.3% | 25 mg/L |  |  |  |
| B2 |  |  |  |  |  |  |  | 1.2 fold | 2.1 fold | improved sialyltransferase activity |
